Laboratory results from US20090111753A1, “Nogo-A Polypeptide Fragments, Variant Nogo Receptor-1 Polypeptides, and Uses Thereof” (Yale University, priority 2004, published 2009).
Changes are numbered by the printed parent chain.

T1: AP-B4C (Homo sapiens, UniProt Q9NQC3)
T1 construct: a.a; 950-1018 (AmNg B4C); made in house; host or cells: AP ligand: HEK293T conditioned medium; NgR mutants: COS-7
T1 sequence (Q9NQC3 950-1018): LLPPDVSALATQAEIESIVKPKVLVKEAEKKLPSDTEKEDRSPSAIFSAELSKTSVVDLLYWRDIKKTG

T2: AP-Lingo-1 (Homo sapiens, UniProt Q96FE5)
T2 construct: made in house; NgR mutants: COS-7
T2 sequence (Q96FE5 40-538 limits assumed): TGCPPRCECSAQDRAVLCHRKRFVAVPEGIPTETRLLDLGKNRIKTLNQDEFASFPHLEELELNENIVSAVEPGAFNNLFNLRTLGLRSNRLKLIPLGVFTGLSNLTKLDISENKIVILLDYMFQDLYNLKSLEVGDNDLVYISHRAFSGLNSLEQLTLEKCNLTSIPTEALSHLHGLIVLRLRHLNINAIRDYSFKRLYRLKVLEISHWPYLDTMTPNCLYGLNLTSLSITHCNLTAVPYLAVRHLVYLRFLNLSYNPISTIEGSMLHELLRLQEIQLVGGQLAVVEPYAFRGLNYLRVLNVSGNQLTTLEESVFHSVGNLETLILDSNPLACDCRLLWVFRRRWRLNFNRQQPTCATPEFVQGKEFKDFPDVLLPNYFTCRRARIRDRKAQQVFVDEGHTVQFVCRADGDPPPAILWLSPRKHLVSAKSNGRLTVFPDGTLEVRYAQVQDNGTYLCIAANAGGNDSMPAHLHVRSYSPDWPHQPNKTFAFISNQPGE

T3: AP-Nogo66 (Homo sapiens, UniProt Q9NQC3)
T3 construct: made in house; NgR mutants: COS-7
T3 sequence (Q9NQC3 1055-1120 limits assumed): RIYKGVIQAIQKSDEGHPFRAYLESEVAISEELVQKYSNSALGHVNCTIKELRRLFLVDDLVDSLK

B1: 89, 90: human NgR1 mutant, listed residues mutated to alanine (protein)
chain: CPGACVCYNEPKVTTSCPQQGLQAVPVGIPAASQRIFLHGNRISHVPAASFRACRNLTILWLAANVLARIDAAAFTGLALLEQLDLSDNAQLRSVDPATFHGLGRLHTLHLDRCGLQELGPGLFRGLAALQYLYLQDNALQALPDDTFRDLGNLTHLFLHGNRISSVPERAFRGLHSLDRLLLHQNRVAHVHPHAFRDLGRLMTLYLFANNLSALPTEALAPLRALQYLRLNDNPWVCDCRARPLWAWLQKFRGSSSEVPCSLPQRLAGRDLKRLAANDLQGCAVATGPYHPIWTGRATDEEPLGLPKCCQPDAADKASVLEPGRPASAGNALKGRVPPGDSPPGNGSGPRHINDSPFGTLPGSAEPPLTAVRPEGSEPPGFPTSGPRRRPGCSRKNRTRSHCRLGQAGSGGGGTGDSEGSGALPSLTCSLTPLGLALVLWTVLGPC
B2: 95, 97: human NgR1 mutant, listed residues mutated to alanine (protein)
chain: B1 chain with A63H, A64S, R69A, D71A
B3: 108, 131: human NgR1 mutant, listed residues mutated to alanine (protein)
chain: B1 chain with A63H, A64S, E82A, R105A

Biological target: T1, AP-B4C
Experiment: Binding of AP-B4C to COS-7 cells expressing NgR mutants
Set-up: key: ++: WT level; +: weaker than wild type; trace binding; −: no binding
Conditions: AP-B4C 10 nM; level of binding compared to wild type NgR
Protocol: (§1) FIG. 4A. […] Binding of AP or AP fused NgR ligands to COS-7 cells expressing different NgR mutants as indicated. The concentrations of ligands applied were: AP, 30 nM; AP-Ng66, 5 nM; AP-Ng33, 10 nM; AP-B4C, 10 nM; AP-B4C66, 0.5 nM; AP-Lingo-1, 10 nM; AP-OMGP, 10 nM; AP-MAG, 30 nM. These concentrations are close to the binding Kd of these proteins to NgR so that any […] is reflected linearly in staining.
(§2) FIG. 4B. AP binding of NgR ligands to NgR mutants expressed as percentage of wild type NgR. AP after incubation with AP fused ligands, AP bound to COS-7 cells expressing NgR or NgR mutants were stained and measured.
(§3) To better define how multiple ligands bind to the NgR protein, we examined a series of Ala-substituted NgR for ligand binding activity. NgR mutagenesis was done using the Quick Change Multisite Directed Mutagenesis Kit (Stratagene catalog #200514). Human NgR1 was used as a template. Ala substitutions were generated for each of the charged residues predicted to be solvent accessible at the surface of the ligand binding domain of NgR (Barton, W. A., et al., Embo J. 22:3291-3302 (2003); He, X. L., et al., Neuron 38:177-185 (2003)). We generated mutants in which 1-8 surface residues localized within 5 A of one another were Ala-substituted. Because of the coiling nature of the LRR structure, as residues juxtaposed on the protein surface are commonly separated by approximately 25 residues in the primary structure. In addition to mutations in specific charged surface patches, other mutations were targeted to glycosylation sites and to regions predicted to be involved in ligand binding based on the NgR structure (Barton, W. A., et al., Embo J. 22:3291-3302 (2003); He, X. L., et al., Neuron 38:177-185 (2003)). In addition, a variant corresponding to a human polymorphism was examined (D259N). None of the mutations altered the Leu residues that define the LRR structure itself or the Cys residues critical in the amino and carboxyl terminal capping domains. The vast majority of such Ala surface substitution mutants were expressed as immunoreactive polypeptides with a molecular weight and an expression level indistinguishable from wild type NgR (FIG. 4C and data not shown).
(§4) This collection of 74 individual NgR mutants was interrogated for AP-Nogo-66, AP-Amino-Nogo-B4C, AP-MAG, AP-OMgp, and AP-Lingo-1 binding. AP-Nogo66, AP-MAG, AP-OMGP and AP-Lingo-1 constructs are described elsewhere (Fournier, A. E., et al., Nature 409:341-346 (2001); Liu, B. P., et al., Science 297:1190-1193 (2002); Mi, S., et al., Nat. Neurosci. 7:221-228 (2004); Wang, K. C., et al., Nature 417:941-944 (2002b)). The properties of the NgR mutants fell into one of three major categories (Table II and FIG. 5). A number of Ala substituted NgR polypeptides bound all of the ligands at wild type levels. […] In addition, a significant extent of the concave surface is dispensable for ligand binding.
(§5) Binding of Alanine substituted NgR mutants to NgR ligands were compared to wild type NgR and the levels of binding were categorized as ++ (WT level), + (weaker than wild type), tr (trace binding), − (no binding), N/A (not determined). NgR mutant proteins were also subjected to SDS-PAGE and probed by anti-NgR antibodies. Mutants with expression level similar to WT NgR were labeled as “y”.

B4C | Molecule
+ | B1
++ | B2
+ | B3

Biological target: T2, AP-Lingo-1
Experiment: Binding of AP-Lingo-1 to COS-7 cells expressing NgR mutants
Set-up: key: ++: WT level; +: weaker than wild type; trace binding; −: no binding
Conditions: AP-Lingo-1 10 nM; level of binding compared to wild type NgR
Protocol: as §1, §2, §3, §4, §5

Lingo-1 | Molecule
− | B1
+ | B2
− | B3

Tested on: AP-B4C66
Experiment: Binding of AP-B4C66 to COS-7 cells expressing NgR mutants
Set-up: key: ++: WT level; +: weaker than wild type; trace binding; −: no binding
Conditions: AP-B4C66 0.5 nM; level of binding compared to wild type NgR
Protocol: as §1, §2, §3, §4, §5

Molecule | B4C-66
B1 | +
B2 | +
B3 | +

Tested on: AP-OMgp
Experiment: Binding of AP-OMgp to COS-7 cells expressing NgR mutants
Set-up: key: ++: WT level; +: weaker than wild type; trace binding; −: no binding
Conditions: AP-OMGP 10 nM; level of binding compared to wild type NgR
Protocol: as §1, §2, §3, §4, §5

Molecule | OMgp
B1 | −
B2 | tr
B3 | +

Tested on: AP-MAG
Experiment: Binding of AP-MAG to COS-7 cells expressing NgR mutants
Set-up: key: ++: WT level; +: weaker than wild type; trace binding; −: no binding
Conditions: AP-MAG 30 nM; level of binding compared to wild type NgR
Protocol: as §1, §2, §3, §4, §5

Molecule | MAG
B1 | −
B2 | tr
B3 | tr

Biological target: T3, AP-Nogo66
Experiment: Binding of AP-Nogo66 to COS-7 cells expressing NgR mutants
Set-up: key: ++: WT level; +: weaker than wild type; trace binding; −: no binding
Conditions: AP-Ng66 5 nM; level of binding compared to wild type NgR
Protocol: as §1, §2, §3, §4, §5

Ng66 | Molecule
+ | B1
+ | B2
+ | B3

Tested on: NgR ligands
Experiment: Binding of alanine substituted NgR mutants to NgR ligands, summary categories
Conditions: AP-Nogo66, AP-B4C, AP-B4C66, AP-Lingo-1, AP-OMgp and AP-MAG; compared to wild type NgR
Method in brief: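 AP-fused ligands (Nogo66, B4C, B4C66, Lingo-1, OMgp, MAG) were assayed against 74 Ala-substitution mutants of human NgR1 targeting surface charged patches, glycosylation sites and predicted binding regions, plus the D259N variant. Outcomes were grouped into categories: binding lost for all ligands, retained for all, or ligand-selective.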

ligand binding category of NgR mutant (Table II) | Molecule
Differential binding | B1
Differential binding | B2
Differential binding | B3
